Measured values reported in the DeepSol protein solubility set.

Assay: soluble on expression in E. coli; label from the status in PepcDB or PDB records

Sequence | soluble on expression in E. coli
MPATNDGPDDGAHLSKSEQTRALILETAMRLFQERGYDRTTMRAIAQEAGVSVGNAYYYFAGKEHLIQGFYDRIAAEHRAAVREVLARETDLEARLAGVLKVWLDIATPYHEFAVQFFKNAADPDSPLSPFSPESEHARVEAIGIHRAVLAGAKTKVPEELRDILPELMWLSQMGLVLYWIFDRTEGRERSYRLAERGARLTARGVVLARFRVLRPLVREVHELFTDFLPGMTKVMPDPAKKPTRDAGPQA | soluble
MVIRPVERSDVSALMQLASKTGGGLTSLPANEATLSARIERAIKTWQGELPKSEQGYVFVLEDSETGTVAGICAIEVAVGLNDPWYNYRVGTLVHASKELNVYNALPTLFLSNDHTGSSELCTLFLDPDWRKEGNGYLLSKSRFMFMAAFRDKFNDKVVAEMRGVIDEHGYSPFWQSLGKRFFSMDFSRADFLCGTGQKAFIAELMPKHPIYTHFLSQEAQDVIGQVHPQTAPARAVLEKEGFRYRNYIDIFDGGPTLECDIDRVRAIRKSRLVEVAEGQPAQGDFPACLVANENYHHFRVVLARTDPATERLILTAAQLDALKCHAGDRVRLVRLCAEEKTA | not soluble
MGSDKIHHHHHHMASLTFLGAAQEVTGSCYLLETLDGVKVLLECGMRQGRREADNGNRAPFPFDPASIDAVVISHAHLDHSGLLPRLAAEGFKGPIFATEATCELLELMLLDSAHIQEKDAEWENRWRNRIGKPSIKPLYTQADTERALKLRRPISLGSTVAVARGVRVTFHNAGHILGSSIVEVQFHDQVQPRRLVFSGDLGNTCSPLMRAPSPLSRADVVMLESTYGDRDHRDSNDTLEELAAILDQAHRDGGNVLIPSFAVGRTQDLLYYLGRFYQEGRLPQQAVFLDSPMAARANGIYLRHSNEFDDRDREYIRGTGTTRLEEWLPVLRVTRSADESMAINRIKSGAVIIAGSGMCTGGRIVHHFKHNLWRPECHVVFPGFQARGTLGRNIVDGASAVRVFHQRIAVKAQIHTLGGFSAHAGQSQLLDWVGHFAHRPALYLIHGEREKMEALQSAIRERLDWDAEIPEPGERIEI | not soluble
MSEETIEKFEDNVEHQNQDQPVPEGMSKKQLRRQKYKVKWEEKKLVKRAAERIRKKEKRAALKESGDLSKLRKRKDFRTMAQSNSKQRIALDMSFDDLMIEKDQKRTVQQIGWCYTANRHSPDPFQFHVVGFDGPSRKIYDGNEHNLNQDIHLHQEKLENLFKPEEIVYLTSESENVLSDLDDTKVYVIGGIVDHNSQKGLCYRIAQEKGFGHAKLPLDEHLLMKSRRVLTINQVYEILVHYSVHKNWKDALLSIIPERKNAQLKEEVVEEKPESLEEIGKLDTESTDTATGSPKIN | soluble
MRIEEDLKLGFKDVLIRPKRSTLKSRSDVELERQFTFKHSGQSWSGVPIIAANMDTVGTFSMASALASFDILTAVHKHYSVEEWQAFINNSSADVLKHVMVSTGTSDADFEKTKQILDLNPALNFVCIDVANGYSEHFVQFVAKAREAWPTKTICAGNVVTGEMCEELILSGADIVKVGIGPGSVCTTRVKTGVGYPQLSAVIECADAAHGLGGMIVSDGGCTTPGDVAKAFGGGADFVMLGGMLAGHEESGGRIVEENGEKFMLFYGMSSESAMKRHVGGVAEYRAAEGKTVKLPLRGPVENTARDILGGLRSACTYVGASRLKELTKRTTFIRVQEQENRIFNNL | soluble
MSLINPIDPAARRPQTTVQPSTPPQAKPKPLAATQVLPAQSVLNLAQSELGTDMQELGSIFPVEESCAETLENMSFALGTQARERMRGLSSSADRARPRSMMQRLAKQVSATAPDHLEELRQRVPGIEAVEEVDDLLNSLRQHQFDAGEMALLLAAMLGKDGLSPTRRRRLEEALDRVMDDEDWALQLFSHLEFGAVGKSGLAELRRLYQRAASRQSGLVYWFGQFRQMDDRQRKLKTLIRALAFELSAQGGATDIRLAAVITDLKRVLQFLGMEDHCDRVAKALAIPELDGNRIIEELLEIIQQSWVYPDWLSSRADALMPEEHSRHGYARRMGELVKLLPDDCFEDIDQRETILAAFLEYQEQLADEEEGHHHHHH | soluble
MGSDKIHHHHHHMVNEQRVLDTFLELVQIDSESKEEAQICAHLKETFTALGCDVFEDDASSKTEHKGNNLIITLPATKDGVDKIYFTSHMDTVFPGQGIKPIIEDGYVKTDGTTILGADDKTGLASLIELVHVLNETNQPHGKIQFVITVGEESGLVGAMVLDPSKIDADYGFALDSDGKVGDIITAAPTQAKVNAKIYGKTAHAGVAPEKGISAITIAAKAIAKMPLGRIDEETTANIGRFSGGGPSTNIVCDYVEIFAEARSLVAPKMEAQTAKMKAAFEEVAAEFGGRAEVEVKVMYPGFKFEDGDQVVEVAKAAITQLGRTPRLLHSGGGSDANVIAGFGIPTVNLAVGYEDIHTTNEKMPIEELVKTAELCVTLVDYITNK | not soluble
MPPRRDLKKILIIGSGPITIGQAAEFDYSGTQAVKALRGAGYRVVLVNSNPATIMTDPELAERTYIEPLDLEHLEGILAREAPDALLPTLGGQTGLNLAMALHEEGILQKYGVELIGAKAEAIRKGEDREAFQEAMQRIGLEVPRGQLVGSVEEGLHFAREVGFPVVVRPSFTLGGTGGGIAHDEAELVEVLSRGLTLSPVHTALVEESVLGWKEFELEVMRDHADTVVIITSIENVDPMGVHTGDSITVAPAQTLSDVEYQRMRDAAKAIIREIGVETGGSNIQFAVDPKTGRQVVIEMNPRVSRSSALASKATGFPIAKIAALLAVGYRLDELPNDITRKTPASFEPTIDYVVVKIPRFAFEKFRPLRNTLGELKDELTTQMKSVGEVMAIGRTFKEALMKALRGLERDVRALAGVRTEELEKKLYPNPDRVYAVMELLRRGMPVEELYQATRIDPWFLHQMKEVVEAEEWLKTHPPKDREDWRFYKGLGLTDRRIGELVGKGEKEVRAERKALGVVPVYKTVDTCAAEFEAYTPYHYSTYELEDEVWPSQKPKVVILGSGPIRIGQGVEFDYATVHAVWALKEAGYETIMVNSNPETVSTDYDTADRLYFEPLTLEDVLNIVEHEKPIGVIATLGGQTPLKLAKGLEEAGVRLLGTPFSAIHQAEDREAFHALCQRLGIPQPEGRVAQSPEEALRLAPEVGFPLLVRPSYVLGGRAMQVVRDEGELKRYLEEVYAPLEERPSILLDRFLEGAVELDVDALSDGQEVMVAGIMEHVERAGVHSGDSATLLPPVHVPEEALKKVRDYTRRLALALGVRGLLNVQYAVVGEEVYVLEANPRASRTVPFVSKAIGVPLAKLAALIAVGKTLKELGVRDLDPVPPYYAAKEVVIPWIKFPGVIPELGPEMRSTGESMGIDQDPYLAYYKAELGAGQRLPLSGRVRFIGEGLEDLKALYQEAGFALTEGEDYDLLISLVPDPELRRAVERGLPFITTREGAWWSLKAILRARESGLRVQSLQDWHQKAPRG | soluble
MGSDKIHHHHHHEVRSTFINFFREKKEHTYVHSSSVIPHDDPTLLFANAGMNQFKPLFLGIADPNSDLAKLKRAVNTQKCIRAGGKHNDLDDVGKDVYHHTYFEMLGNWSFGDYFKKEIITWAWELLTTVYGIPAERLYVSVFGGDEANGVPADSEARDIWRSVGVPDERILNFGMKDNFWEMGDVGPCGPCSEIHYDRIGNRDASHLVNADDPMVVEIWNLVFIQFNREEGGVLKPLPAKHIDCGLGLERLIAVMQDKTSNYDTDIFQPIFEAIHKGSGVRAYTGFIGDEDKDGVDMAYRVVADHVRTLTIALSDGGRPDNSGRGYVLRRILRRGVRYASEKLNAQPGFFASLVPVVISILGETFPELSRDPVTVMDIINDEEKQFLKTLSRGRVLFQRAVQSLPEGTMTFPGDVSWRLYDTYGFPADLTQLMAEEKGLSVDNTAFEEARRKAIETSSAGTGKFRDTLDLDVHALAELQQKGVPTTDDSPKYAYTFTGEGSDAVYKFEPCVGKILAIRRDGKFVDQLAAGEEGAILLDRTNFYAEQGGQIYDVGVLTKVNDESNEFNVSNCQVRGGYIVLVGSAEGSFSVGDQVNERFDEDRKQLIMKNHTGTHVLNYALRKVLADSDQKGSLVAPDRMRFDFTNKAGMTVQQVKKAEEYAQQLIDTKGQVYAKNSPLGEAKKVKGLRAMFDETYPDPVRVVAVGTPVEQLLQNPDAEEGQNTTVEFCGGTHLQNVSHIGRIVIASEEAIAKGIRRIVALTGPEAER | not soluble
MGSDKIHHHHHHMRQGAGLGYRRDLAEGFLQLRNNDRIQFMEIAPENWIKMGGFARYQFDKVAEKIPILIHGLSLSLGGQAPLDKELLSSIKAMIKQYNTPFFSDHLSFCECDGHLYDLLPMPFTDEAVKHTAARIREVQDFLEIQISVENTSYYLHSETSTMNEVEFLNAIVQEANCGIHLDVNNIYVNAVNHGLLDPHVFIDNVDLKRVNYIHIAGHDDEHAATEVQIQTSESFNKIKGDLRHLPPLLVDTHGENVKGTVWDLLEYTYARLSHMPPTLLERDFNFPPFEKLCKEVDIIHQLQQKYVKKRGLSWLKI | not soluble
MGSDKIHHHHHHMATALYTANDFILISLPQNAQPVTAPGSKTDSWFNETLIGGRAFVSDFKIPEFKIGSLDTLIVESEELSKVDNQIGASIGKIIEILQGLNETSTNAYRTLPINNMPVPEYLENFQWQTRKFKLDKSIKDLITLISNESSQLDADVRATYANYNSAKTNLAAAERKKTGDLSVRSLHDIVKPEDFVLNSEHLTTVLVAVPKSLKSDFEKSYETLSKNVVPASASVIAEDAEYVLFNVHLFKKNVQEFTTAAREKKFIPREFNYSEELIDQLKKEHDSAASLEQSLRVQLVRLAKTAYVDVFINWFHIKALRVYVESVLRYGLPPHFNIKIIAVPPKNLSKCKSELIDAFGFLGGNAFMKDKKGKINKQDTSLHQYASLVDTEYEPFVMYIINL | not soluble
MQIQQNNSLIYNTLTKKLSSFIPIKSTRRKLRNHIQYKLEHPKVTNYLSNNYINPFLEGKIPHFDFEKKHYFKNDKIIWQFWYQGKNQASPMIQQCFNSVQSQMKDDYTIIILDKDNIKDYLDFPPFVIEKLENNFFGEKTITFFSDLLRVCLLATYGGIWCDASIFLSSKIPSELCDKDFFTFERSKIKPSKEKLKKFIKSGYFSYGYFNWNDDFKVKMLSSFMIAKTNNTFIQTLKDILMNYWKNEQSSENHYYFILHIIFELLKEHGFVNDIYKNMSDIECHLLQFSAKEKFNSTLWEEIQKQSFLHKLTHFKSIKKDSMIDKIILQSLEHHHHHH | soluble
PRRLEPLIEDGLIDEVVRPLMSGKEASVYVVRCGDSLRCAKVYKEANKRSFRQAAEYQEGRKVRNSRQARAMAKGSKYGRREQEEAWQNAEVAALFRLAGAGVRVPKPYDFLDGVLLMELVADADGDAAPRLNDVTLEPDEARRHHAFLIRQIVAMLCAGLVHGDLSEFNVLLGPDGPVIIDLPQAVDAAGNNHAFSMLERDVGNMAAYFGRFAPELRQTRYAKEMWALYEAGELTAETPLSGTFVEAEEAADVRAVLREIEAAQREEARRQALRQADDAPRGEREE | not soluble
MVEFSKESSTRVSVNSQRQISHVQKRELTKRKSVRFETQTVESTSEFVGKTNQEWTFVADCFNLDKETRSEREQELLSLCNFFDSNEKELELSDASDESDDSVPFELFAEQGMRIAWTQIVTSPSLSNLRLASILRFDTKKKIVSPFIEDEKSPQEFFLDDNEAVENAFKGVLPCTNSQKVSRSRRASKSEEENDFVTAKGSDFWSDVEF | not soluble
GIQPVISAQEQETQIVLYGKLVEARQKHANKMDVPPAILATNKILVDMAKMRPTTVENVKRIDGVSEGKAAMLAPLLEVIKHFCQTNSVQTDLFSSTKPQEEQ | soluble
MKSIHYTKAVSGTERMTFGSNDEWERIVEEMLEFEKICIPFHSTSHSPDILFKLHGRTNEKNLMIVGIACKGRWSRNGIRWNEILEEAHKFLKPVHDQVLTSHPTWHCMLIIMSTQLATNVSEDLNHSSRCYSFGDSVGDFVIPHNCELVILSEADVENFIGKDILSNLRNAFKAVDNPHSRNIGISTLQKIVLLLSKNI | not soluble
